# Source: patent publication US8840891 (RSR, dated 2014)
# B1: 5C9 IgG (human monoclonal autoantibody to the TSHR) (antibody, from another filing, V domains shown)
# VH: EVQLVESGGGLIQPGGSLRLSCAASGFTVSSNYMSWVRQAPGKGLEWVSVTYSGGSTSYADSVKGRFTISRDNSKNTLYLQMNSLRAEDTAVYYCARGGRYCSSISCYARSGCDYWGQGTLVTVSS
# VL: AIQMTQSPSSLSASVGDRVTITCRASQSISNYLNWYQQKPGKAPKLLIYAASSLQSGVPSRFSGSGSGTDFTLTISSLQPEDFATYYCQQSYSSPSTTFGQGTKLEIK
# What was measured:
# Test in all cases: cell-based or functional assay
# [1] = target: TSHR Asp151Ala expressed in CHO cells (human) (UniProt P16473)
# [2] = target: TSHR I568T (activating mutation) expressed in CHO cells (human) (UniProt P16473)
# [3] = target: TSHR with Asp43 mutated to Alanine expressed on CHO cells (human) (UniProt P16473)
# [4] = target: TSHR with Glu107 mutated to Alanine expressed on CHO cells (human) (UniProt P16473)
# [5] = target: TSHR with activating mutation A623I expressed on CHO cells (human) (UniProt P16473)
# [6] = target: TSHR with activating mutation I568T expressed on CHO cells (human) (UniProt P16473)
# [7] = target: human TSHR (wild type) expressed in CHO cells (human) (UniProt P16473)
# [8] = target: wild type human TSHR (thyrotropin receptor) expressed on CHO cells (human) (UniProt P16473)
binder,measurement,setting,value
B1,% inhibition of TSH stimulation of cyclic AMP; 5C9 IgG 1 µg/mL,[1],49%
same,% inhibition of basal cyclic AMP activity; 5C9 IgG 1 µg/mL,[2],83%
same,Cyclic AMP produced; 5C9 0.01 µg/mL + TSH (fmol/cell well),[3],12700
same,Cyclic AMP produced; 5C9 0.1 µg/mL + TSH (fmol/cell well),[3],6730
same,Cyclic AMP produced; 5C9 1.0 µg/mL + TSH (fmol/cell well),[3],471
same,Cyclic AMP produced; 5C9 10 µg/mL + TSH (fmol/cell well),[3],119
same,Cyclic AMP produced; 5C9 100 µg/mL + TSH (fmol/cell well),[3],31
same,Cyclic AMP produced; 5C9 100 µg/mL only (fmol/cell well),[3],206
same,Mutated/wild type (%); 5C9 0.01 µg/mL + TSH,[3],97%
same,Mutated/wild type (%); 5C9 0.1 µg/mL + TSH,[3],86%
same,Mutated/wild type (%); 5C9 1.0 µg/mL + TSH,[3],23%
same,Mutated/wild type (%); 5C9 10 µg/mL + TSH,[3],39%
same,Mutated/wild type (%); 5C9 100 µg/mL + TSH,[3],37%
same,Mutated/wild type (%); 5C9 100 µg/mL only,[3],438%
same,Cyclic AMP produced; Experiment 1; 5C9 0.01 µg/mL + TSH (fmol/cell well),[4],15000
same,Cyclic AMP produced; Experiment 1; 5C9 0.1 µg/mL + TSH (fmol/cell well),[4],5780
same,Cyclic AMP produced; Experiment 1; 5C9 1.0 µg/mL + TSH (fmol/cell well),[4],394
same,Cyclic AMP produced; Experiment 1; 5C9 10 µg/mL + TSH (fmol/cell well),[4],449
same,Cyclic AMP produced; Experiment 1; 5C9 100 µg/mL + TSH (fmol/cell well),[4],203
same,Cyclic AMP produced; Experiment 1; 5C9 100 µg/mL only (fmol/cell well),[4],462
same,Cyclic AMP produced; Experiment 2; 5C9 0.01 µg/mL + TSH (fmol/cell well),[4],21000
same,Cyclic AMP produced; Experiment 2; 5C9 0.1 µg/mL + TSH (fmol/cell well),[4],1540
same,Cyclic AMP produced; Experiment 2; 5C9 1.0 µg/mL + TSH (fmol/cell well),[4],28
same,Cyclic AMP produced; Experiment 2; 5C9 10 µg/mL + TSH (fmol/cell well),[4],321
same,Cyclic AMP produced; Experiment 2; 5C9 100 µg/mL + TSH (fmol/cell well),[4],64
same,Cyclic AMP produced; Experiment 2; 5C9 100 µg/mL only (fmol/cell well),[4],408
same,Mutated/wild type (%); Experiment 1; 5C9 0.01 µg/mL + TSH,[4],88%
same,Mutated/wild type (%); Experiment 1; 5C9 0.1 µg/mL + TSH,[4],97%
same,Mutated/wild type (%); Experiment 1; 5C9 1.0 µg/mL + TSH,[4],37%
same,Mutated/wild type (%); Experiment 1; 5C9 10 µg/mL + TSH,[4],91%
same,Mutated/wild type (%); Experiment 1; 5C9 100 µg/mL + TSH,[4],105%
same,Mutated/wild type (%); Experiment 1; 5C9 100 µg/mL only,[4],36%
same,Mutated/wild type (%); Experiment 2; 5C9 0.01 µg/mL + TSH,[4],113%
same,Mutated/wild type (%); Experiment 2; 5C9 0.1 µg/mL + TSH,[4],37%
same,Mutated/wild type (%); Experiment 2; 5C9 1.0 µg/mL + TSH,[4],4%
same,Mutated/wild type (%); Experiment 2; 5C9 10 µg/mL + TSH,[4],150%
same,Mutated/wild type (%); Experiment 2; 5C9 100 µg/mL + TSH,[4],27%
same,Mutated/wild type (%); Experiment 2; 5C9 100 µg/mL only,[4],193%
same,Cyclic AMP concentration (basal) in the presence of 5C9 IgG (1 µg/mL) (fmol/cell well),[5],1910
same,inhibition of basal cyclic AMP activity; 5C9 IgG at 1 µg/mL,[5],49%
same,Cyclic AMP concentration (basal) in the presence of 5C9 IgG (1 µg/mL) (fmol/cell well),[6],548
same,% inhibition of TSH stimulation of cyclic AMP; 5C9 IgG 1 µg/mL; wild type in the Asp151Ala experiment,[7],88%
same,% inhibition of TSH stimulation of cyclic AMP; 5C9 IgG 1 µg/mL; wild type in the Lys183Ala experiment,[7],84%
same,% inhibition of TSH stimulation of cyclic AMP; 5C9 IgG 100 µg/mL; wild type in the Lys183Ala experiment,[7],93%
same,"activity in blocking TSH stimulation of cyclic AMP, relative to donor serum IgG",[7],3900 times
same,basal cyclic AMP level relative to cyclic AMP assay buffer; 5C9 IgG 1 µg/mL; CHO cells with approximately 5x10^5 wild type TSHRs per cell,[7],33%
same,cyclic AMP production; 5C9 IgG 0.001 µg/mL + M22 Fab 3 ng/mL (fmol/cell well),[7],11600
same,cyclic AMP production; 5C9 IgG 0.001 µg/mL + pTSH 3 ng/mL (fmol/cell well),[7],14100
same,cyclic AMP production; 5C9 IgG 0.001 µg/mL only (fmol/cell well),[7],554
same,cyclic AMP production; 5C9 IgG 0.01 µg/mL + M22 Fab 3 ng/mL (fmol/cell well),[7],9980
same,cyclic AMP production; 5C9 IgG 0.01 µg/mL + pTSH 3 ng/mL (fmol/cell well),[7],15000
same,cyclic AMP production; 5C9 IgG 0.01 µg/mL only (fmol/cell well),[7],578
same,cyclic AMP production; 5C9 IgG 0.1 µg/mL + M22 Fab 3 ng/mL (fmol/cell well),[7],1300
same,cyclic AMP production; 5C9 IgG 0.1 µg/mL + pTSH 3 ng/mL (fmol/cell well),[7],3920
same,cyclic AMP production; 5C9 IgG 0.1 µg/mL only (fmol/cell well),[7],404
same,cyclic AMP production; 5C9 IgG 1 µg/mL + M22 Fab 3 ng/mL (fmol/cell well),[7],956
same,cyclic AMP production; 5C9 IgG 1 µg/mL + pTSH 3 ng/mL (fmol/cell well),[7],1870
same,cyclic AMP production; 5C9 IgG 1 µg/mL only (fmol/cell well),[7],376
same,cyclic AMP production; 5C9 IgG 10 µg/mL + M22 Fab 3 ng/mL; mean of duplicate samples (fmol/cell well),[7],638
same,cyclic AMP production; 5C9 IgG 10 µg/mL + pTSH 3 ng/mL (fmol/cell well),[7],1030
same,cyclic AMP production; 5C9 IgG 10 µg/mL only (fmol/cell well),[7],360
same,cyclic AMP production; 5C9 IgG 100 µg/mL + M22 Fab 3 ng/mL (fmol/cell well),[7],354
same,cyclic AMP production; 5C9 IgG 100 µg/mL + pTSH 3 ng/mL (fmol/cell well),[7],1090
same,cyclic AMP production; 5C9 IgG 100 µg/mL only (fmol/cell well),[7],426
same,cyclic AMP; 5C9 IgG 0.01 µg/mL + pTSH (3 ng/mL) (fmol/cell well),[7],19000
same,cyclic AMP; 5C9 IgG 0.02 µg/mL + pTSH (3 ng/mL) (fmol/cell well),[7],16400
same,cyclic AMP; 5C9 IgG 0.04 µg/mL + pTSH (3 ng/mL) (fmol/cell well),[7],13900
same,cyclic AMP; 5C9 IgG 0.06 µg/mL + pTSH (3 ng/mL); single determination (fmol/cell well),[7],13300
same,cyclic AMP; 5C9 IgG 0.08 µg/mL + pTSH (3 ng/mL) (fmol/cell well),[7],14500
same,cyclic AMP; 5C9 IgG 0.1 µg/mL + pTSH (3 ng/mL) (fmol/cell well),[7],11900
same,cyclic AMP; 5C9 IgG 0.5 µg/mL + pTSH (3 ng/mL) (fmol/cell well),[7],4750
same,cyclic AMP; 5C9 IgG 1 µg/mL + pTSH (3 ng/mL) (fmol/cell well),[7],2210
same,cyclic AMP; 5C9 IgG only 1 µg/mL (fmol/cell well),[7],141
same,cyclic AMP; Example 1; 5C9 IgG 10 µg/mL + TSH (fmol/cell well),[7],247
same,cyclic AMP; Example 1; 5C9 IgG 100 µg/mL + TSH (fmol/cell well),[7],754
same,cyclic AMP; Example 1; 5C9 IgG 100 µg/mL only (fmol/cell well),[7],237
same,cyclic AMP; Example 2; 5C9 IgG 10 µg/mL + TSH (fmol/cell well),[7],723
same,cyclic AMP; Example 2; 5C9 IgG 100 µg/mL + TSH (fmol/cell well),[7],1110
same,cyclic AMP; Example 2; 5C9 IgG 100 µg/mL only (fmol/cell well),[7],338
same,inhibition of cyclic AMP production stimulated by patient serum T3; 5C9 IgG 100 µg/mL,[7],50%
same,Cyclic AMP concentration (basal) in the presence of 5C9 IgG (1 µg/mL) (fmol/cell well),[8],1870
same,Cyclic AMP produced; 5C9 0.01 µg/mL + TSH (fmol/cell well),[8],13100
same,Cyclic AMP produced; 5C9 0.1 µg/mL + TSH (fmol/cell well),[8],7810
same,Cyclic AMP produced; 5C9 1.0 µg/mL + TSH (fmol/cell well),[8],2020
same,Cyclic AMP produced; 5C9 10 µg/mL + TSH (fmol/cell well),[8],306
same,Cyclic AMP produced; 5C9 100 µg/mL + TSH (fmol/cell well),[8],84
same,Cyclic AMP produced; 5C9 100 µg/mL only (fmol/cell well),[8],47
same,Cyclic AMP produced; Experiment 1; 5C9 0.01 µg/mL + TSH (fmol/cell well),[8],17000
same,Cyclic AMP produced; Experiment 1; 5C9 0.1 µg/mL + TSH (fmol/cell well),[8],5950
same,Cyclic AMP produced; Experiment 1; 5C9 1.0 µg/mL + TSH (fmol/cell well),[8],1060
same,Cyclic AMP produced; Experiment 1; 5C9 10 µg/mL + TSH (fmol/cell well),[8],496
same,Cyclic AMP produced; Experiment 1; 5C9 100 µg/mL + TSH (fmol/cell well),[8],193
same,Cyclic AMP produced; Experiment 1; 5C9 100 µg/mL only (fmol/cell well),[8],1270
same,Cyclic AMP produced; Experiment 2; 5C9 0.01 µg/mL + TSH (fmol/cell well),[8],18600
same,Cyclic AMP produced; Experiment 2; 5C9 0.1 µg/mL + TSH (fmol/cell well),[8],4220
same,Cyclic AMP produced; Experiment 2; 5C9 1.0 µg/mL + TSH (fmol/cell well),[8],738
same,Cyclic AMP produced; Experiment 2; 5C9 10 µg/mL + TSH (fmol/cell well),[8],214
same,Cyclic AMP produced; Experiment 2; 5C9 100 µg/mL + TSH (fmol/cell well),[8],238
same,Cyclic AMP produced; Experiment 2; 5C9 100 µg/mL only (fmol/cell well),[8],211
